The source of these data is the RNAGym collection of RNA variant scans (doi:10.1073/pnas.2313332121).

First the molecules themselves.
B1: TPR 5TU (parent)
chain: GGAUCUUCUCGAUCUAACAAAAAAGACAAAUCUGCCACAAAGCUUGAGAGCAUCUUCGGAUGCAGAGGCGGCAGCCUUCGGUGGCGCGAUAGCGCCAACGUUCUCAACUAUGACACGCAAAACGCGUGCUCCGUUGAAUGGAGUUUAUCAUG

This sample holds only a part of the variants without activity.

In this data set the parent is B1. Description: polymerase ribozyme fitness, log enrichment relative to wild type (log ratio); higher = more active; in vitro selection for triplet polymerase activity. The method in brief:
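Mutant libraries of each subunit of a heterodimeric triplet polymerase ribozyme were built by PCR and transcribed. Each library went through one round of in vitro selection in triplicate: annealing with biotinylated primer, partner subunit and triplets, frozen incubation at −7 °C, gel excision of extended constructs, streptavidin-bead capture and RT-PCR. Input and output libraries were Illumina-sequenced; only genotypes with ≥10 input reads and ≥1 read per output were kept. Fitness is log2(genotype enrichment/wild-type enrichment), using inverse-variance-weighted replicate averages.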
For the variant C57A C96U U146G, the “polymerase ribozyme fitness (log ratio)” value is -0.855.

G58C C87U U135C: the “polymerase ribozyme fitness (log ratio)” value is -2.22.

As for C57A C69A C72U C85A, the “polymerase ribozyme fitness (log ratio)” value was -3.55.

Consider G58C C87A G136A U144G, for which the “polymerase ribozyme fitness (log ratio)” value was ≤ -4.2.

Take U56A G136U: the “polymerase ribozyme fitness (log ratio)” value was -2.72.

For the variant C57U U146G, the “polymerase ribozyme fitness (log ratio)” value was -0.656.

For G59C G65C G136U, the “polymerase ribozyme fitness (log ratio)” value is ≤ -4.2.

Take C57A C132U: the “polymerase ribozyme fitness (log ratio)” value was -0.393.

Turning to U56G G58A A73G C108U A150G, the “polymerase ribozyme fitness (log ratio)” value is ≤ -4.2.

Regarding G59C G81U C95U G141A, the “polymerase ribozyme fitness (log ratio)” value is -3.32.

As to G58U A97G G112C C149A, the “polymerase ribozyme fitness (log ratio)” value is ≤ -4.2.

Regarding C57G C85A C118U G143C, the “polymerase ribozyme fitness (log ratio)” value was -4.1.

On to C57U A147U, for which the “polymerase ribozyme fitness (log ratio)” value was found to be 1.47.

Turning to G59C C85A C95U A137C, the “polymerase ribozyme fitness (log ratio)” value was ≤ -4.2.

In the case of G59C G141U, the “polymerase ribozyme fitness (log ratio)” value is -0.299.

U56A U144C: the “polymerase ribozyme fitness (log ratio)” value came out at 0.537.

For C57U U104C C116G A120U C123A, the “polymerase ribozyme fitness (log ratio)” value was determined as 0.628.

C57U G71U: the “polymerase ribozyme fitness (log ratio)” value is -1.94.

Turning to C57U G81C C95A A122C, the “polymerase ribozyme fitness (log ratio)” value is -0.59.

For U56C U101G A120U C131A, the “polymerase ribozyme fitness (log ratio)” value is -2.44.

For the variant G59C A89G U139C U144C, the “polymerase ribozyme fitness (log ratio)” value is -3.75.

Turning to C57U G58C C79U, the “polymerase ribozyme fitness (log ratio)” value is -1.86.

In the case of G59C U139A, the “polymerase ribozyme fitness (log ratio)” value is ≤ -4.2.

On to G58C C96G C125G G143U, for which the “polymerase ribozyme fitness (log ratio)” value is ≤ -4.2.

Regarding U56G U90A, the “polymerase ribozyme fitness (log ratio)” value is -3.7.

For the variant C57U G59C G83C, the “polymerase ribozyme fitness (log ratio)” value is -1.17.

With C57G C93U, the “polymerase ribozyme fitness (log ratio)” value is -1.72.

As to C57U G84A C93U, the “polymerase ribozyme fitness (log ratio)” value is -2.9.

Consider C57G G83U A147U, for which the “polymerase ribozyme fitness (log ratio)” value was 0.219.

Turning to C57A C85U G143A, the “polymerase ribozyme fitness (log ratio)” value was -0.323.

For C57U C69U, the “polymerase ribozyme fitness (log ratio)” value is -0.915.

As for G59A U61A C79U G83A A121C, the “polymerase ribozyme fitness (log ratio)” value is ≤ -4.2.

Take G59C A115C: the “polymerase ribozyme fitness (log ratio)” value is -0.396.

Turning to G59A G70C, the “polymerase ribozyme fitness (log ratio)” value is -2.8.

Take G58A C87U A89U A106U: the “polymerase ribozyme fitness (log ratio)” value was -2.54.

Consider G58U G80U U104G, for which the “polymerase ribozyme fitness (log ratio)” value is -2.41.

U56G C69U A91U C105G U130A: the “polymerase ribozyme fitness (log ratio)” value is ≤ -4.2.

G58U C69A C85U C132G G133C G141C: the “polymerase ribozyme fitness (log ratio)” value is ≤ -4.2.

For C57U U82G, the “polymerase ribozyme fitness (log ratio)” value was determined as 0.0517.

In the case of U56G C129U, the “polymerase ribozyme fitness (log ratio)” value is -0.408.

Regarding G58A G81C G84A G133C U144G, the “polymerase ribozyme fitness (log ratio)” value is -0.672.

As to G59A A66C G84A A89U, the “polymerase ribozyme fitness (log ratio)” value was ≤ -4.2.

For G58A C63A, the “polymerase ribozyme fitness (log ratio)” value was determined as 0.255.

As for G59C C93U G124C C125U A147U, the “polymerase ribozyme fitness (log ratio)” value was -0.985.

Take G59A C76G U78G C85U G88A G92C: the “polymerase ribozyme fitness (log ratio)” value was ≤ -4.2.

As for C57U A142U, the “polymerase ribozyme fitness (log ratio)” value came out at 0.471.

G59C U111G: the “polymerase ribozyme fitness (log ratio)” value was ≤ -4.2.

Consider G58A C96G, for which the “polymerase ribozyme fitness (log ratio)” value is -0.616.

Regarding G59A A150U, the “polymerase ribozyme fitness (log ratio)” value was 0.933.

With G59A C79A U82A C96A, the “polymerase ribozyme fitness (log ratio)” value was -3.85.

As to G59C G124U, the “polymerase ribozyme fitness (log ratio)” value was -0.228.

On to U56C C87U A110G, for which the “polymerase ribozyme fitness (log ratio)” value is -3.04.

As for G58C C116U, the “polymerase ribozyme fitness (log ratio)” value was 0.354.

Take G58C C116G: the “polymerase ribozyme fitness (log ratio)” value came to 0.494.

As for G58C A60G G81U G88A C108G G117C A119U G143C, the “polymerase ribozyme fitness (log ratio)” value was ≤ -4.2.

On to G59A A60G U134C, for which the “polymerase ribozyme fitness (log ratio)” value is -0.132.

Regarding U56C G80U, the “polymerase ribozyme fitness (log ratio)” value was -0.2.

For the variant C57G G59A G81C U104G A120U, the “polymerase ribozyme fitness (log ratio)” value was -1.84.

As to G58C U77G C87G G152A, the “polymerase ribozyme fitness (log ratio)” value was ≤ -4.2.

Turning to U56A U101G U144C, the “polymerase ribozyme fitness (log ratio)” value was -0.262.

With G59A U101A, the “polymerase ribozyme fitness (log ratio)” value is 0.287.

With G58U G59C U78A C108G U148A, the “polymerase ribozyme fitness (log ratio)” value is ≤ -4.2.

In the case of U56G C57U C96U, the “polymerase ribozyme fitness (log ratio)” value is -0.884.

As for G58A A89U G94U, the “polymerase ribozyme fitness (log ratio)” value is -3.19.

Take G59C C79A C93U: the “polymerase ribozyme fitness (log ratio)” value is ≤ -4.2.

For the variant U56A U146A, the “polymerase ribozyme fitness (log ratio)” value was -0.732.

Consider C57A U145C, for which the “polymerase ribozyme fitness (log ratio)” value was 0.674.

As to G59C C87U U109G, the “polymerase ribozyme fitness (log ratio)” value was -1.03.

G58U G71A A91U G92A G126A G133U: the “polymerase ribozyme fitness (log ratio)” value was ≤ -4.2.

In the case of U56G C57U G62U A66G C75U G83U, the “polymerase ribozyme fitness (log ratio)” value is ≤ -4.2.

G58U C123U G124C: the “polymerase ribozyme fitness (log ratio)” value is -0.593.

Take U56A U135A: the “polymerase ribozyme fitness (log ratio)” value is -1.16.

As to G58A U82G C96A A142G A147G, the “polymerase ribozyme fitness (log ratio)” value is -3.38.

Regarding G59C G71U G88U A98U C116G G124U, the “polymerase ribozyme fitness (log ratio)” value is ≤ -4.2.

U56G A60G: the “polymerase ribozyme fitness (log ratio)” value was -0.515.

Regarding C57A C93A A106U A122U, the “polymerase ribozyme fitness (log ratio)” value is -2.85.

Regarding G59A C63G C69G C93U, the “polymerase ribozyme fitness (log ratio)” value was -2.27.

For the variant G59C U146G, the “polymerase ribozyme fitness (log ratio)” value is -0.145.

On to G59C U146C, for which the “polymerase ribozyme fitness (log ratio)” value is 0.716.

With U56A G92A A150G, the “polymerase ribozyme fitness (log ratio)” value is -2.08.

With C57U A60G G133C G152U, the “polymerase ribozyme fitness (log ratio)” value is -3.31.

Regarding G58A A115C U135C G152U, the “polymerase ribozyme fitness (log ratio)” value is ≤ -4.2.

Turning to C57U G84A C99A, the “polymerase ribozyme fitness (log ratio)” value is -1.59.
